Assay results published in US20160347808A1 (IMMATICS BIOTECHNOLOGIES, published 2016).

Target: T1, HLA-A*02:01 (peptide-receptive MHC class I monomer from UV-ligand exchange) (human)
T1 construct: Monomers were captured on streptavidin-coated plates
Assay: UV-exchange ELISA (anti-b2m); exchange yield grade: + >=10%, ++ >=20%, +++ >=50%, ++++ >=75%
From the text: Candidate peptides for T cell based therapies according to the present invention were further tested for their MHC binding capacity (affinity). The individual peptide-MHC complexes were produced by UV-ligand exchange, where a UV-sensitive peptide is cleaved upon UV-irradiation, and exchanged with the peptide of interest as analyzed. Only peptide candidates that can effectively bind and stabilize the peptide-receptive MHC molecules prevent dissociation of the MHC complexes. To determine the yield of the exchange reaction, an ELISA was performed based on the detection of the light chain (β2m) of stabilized MHC complexes. The assay was performed as generally described in Rodenko et al. (Rodenko et al., 2006).
96 well MAXISorp plates (NUNC) were coated over night with 2 ug/ml streptavidin in PBS at room temperature, washed 4× and blocked for 1 h at 37° C. in 2% BSA containing blocking buffer. Refolded HLA-A*02:01/MLA-001 monomers served as standards, covering the range of 15-500 ng/ml. Peptide-MHC monomers of the UV-exchange reaction were diluted 100 fold in blocking buffer. Samples were incubated for 1 h at 37° C., washed four times, incubated with 2 ug/ml HRP conjugated anti-β2m for 1 h at 37° C., washed again and detected with TMB solution that is stopped with […]. Absorption was measured at 450 nm. Candidate peptides that show a high exchange yield (preferably higher than 50%, most preferred higher than 75%) are generally preferred for a generation and production of antibodies or fragments thereof, and/or T cell receptors or fragments thereof, as they show sufficient avidity to the MHC molecules and prevent dissociation of the MHC complexes.

| Binder | peptide exchange yield |
| --- | --- |
| KLGDFGLLVEL [peptide KLGDFGLLVEL (SEQ ID NO 125)] | ≥ 75% |
| LLNDRIWLA [peptide LLNDRIWLA (SEQ ID NO 144)] | 50 to 75% |
| LLLEVVKQV [peptide LLLEVVKQV (SEQ ID NO 145)] | 50 to 75% |
| ILFSEDSTKLFV [peptide ILFSEDSTKLFV (SEQ ID NO 153)] | 50 to 75% |
| FLDKPEDVLL [peptide FLDKPEDVLL (SEQ ID NO 14)] | 20 to 50% |
| KLLEFDQLQL [peptide KLLEFDQLQL (SEQ ID NO 160)] | 50 to 75% |
| FLKNELDNV [peptide FLKNELDNV (SEQ ID NO 161)] | 50 to 75% |
| ILLTIKDDTIYL [peptide ILLTIKDDTIYL (SEQ ID NO 104)] | 50 to 75% |
| ALVQGILERV [peptide ALVQGILERV (SEQ ID NO 12)] | 50 to 75% |
| GVAGGSILKGV [peptide GVAGGSILKGV (SEQ ID NO 134)] | ≥ 75% |
| FLLAEDTKV [peptide FLLAEDTKV (SEQ ID NO 13)] | 50 to 75% |
| KLFDIFSQQV [peptide KLFDIFSQQV (SEQ ID NO 136)] | 50 to 75% |
| GLLDPSVFHV [peptide GLLDPSVFHV (SEQ ID NO 158)] | 50 to 75% |
| KLPSETIFVGC [peptide KLPSETIFVGC (SEQ ID NO 154)] | 50 to 75% |
| ALIKQLFEA (also called ZNF-002) [peptide ALIKQLFEA (SEQ ID NO 1)] | 50 to 75% |
| AVIEHLERL [peptide AVIEHLERL (SEQ ID NO 141)] | ≥ 75% |
| KLLDVVHPA [peptide KLLDVVHPA (SEQ ID NO 131)] | 20 to 50% |
| KLLAVIHEL (also called RAD54B-002) [peptide KLLAVIHEL (SEQ ID NO 152)] | 20 to 50% |

| Binder | peptide exchange yield |
| --- | --- |
| GLGGSQLIDTHL [peptide GLGGSQLIDTHL (SEQ ID NO 130)] | 20 to 50% |
| ALLGGGPYML [peptide ALLGGGPYML (SEQ ID NO 107)] | 50 to 75% |
| KLMDYIDEL [peptide KLMDYIDEL (SEQ ID NO 162)] | 50 to 75% |
| ALLNAILHSA [peptide ALLNAILHSA (SEQ ID NO 132)] | 50 to 75% |
| LLNEILEQV [peptide LLNEILEQV (SEQ ID NO 140)] | 50 to 75% |
| LQLDKEFQL [peptide LQLDKEFQL (SEQ ID NO 15)] | 50 to 75% |
| ALDGDQMEL [peptide ALDGDQMEL (SEQ ID NO 109)] | 20 to 50% |
| KTLERSYLL [peptide KTLERSYLL (SEQ ID NO 123)] | 20 to 50% |
| LLGELPRLLLL [peptide LLGELPRLLLL (SEQ ID NO 110)] | 50 to 75% |
| KLQEEIPVL [peptide KLQEEIPVL (SEQ ID NO 135)] | 20 to 50% |
| KLGQVLIYL [peptide KLGQVLIYL (SEQ ID NO 112)] | 20 to 50% |
| ILYDLQQNL [peptide ILYDLQQNL (SEQ ID NO 113)] | 20 to 50% |
| KQFEGTVEI [peptide KQFEGTVEI (SEQ ID NO 138)] | 50 to 75% |
| LLADLKTMV [peptide LLADLKTMV (SEQ ID NO 118)] | 50 to 75% |
| ALSDETWGL [peptide ALSDETWGL (SEQ ID NO 146)] | 20 to 50% |
| KLSDVWKEL [peptide KLSDVWKEL (SEQ ID NO 143)] | 50 to 75% |
| ILYQTVTGL [peptide ILYQTVTGL (SEQ ID NO 119)] | 20 to 50% |

Other lines, results leading:

| peptide exchange yield | Binder |
| --- | --- |
| ≥ 75% | TLTELRAFL [peptide TLTELRAFL (SEQ ID NO 147)] |
| 50 to 75% | SLAELVPGVGGI [peptide SLAELVPGVGGI (SEQ ID NO 108)] |
| 50 to 75% | RLLENMTEVV [peptide RLLENMTEVV (SEQ ID NO 148)] |
| 50 to 75% | YALDLSTFL [peptide YALDLSTFL (SEQ ID NO 105)] |
| 50 to 75% | VLIDVLKEL [peptide VLIDVLKEL (SEQ ID NO 129)] |
| 50 to 75% | SLFDVSHML [peptide SLFDVSHML (SEQ ID NO 115)] |
| 20 to 50% | TLQPVDNSTISL [peptide TLQPVDNSTISL (SEQ ID NO 117)] |
| 50 to 75% | SLIERDLKL [peptide SLIERDLKL (SEQ ID NO 157)] |
| 50 to 75% | SLMGMVLKL [peptide SLMGMVLKL (SEQ ID NO 122)] |
| 50 to 75% | RMYNKIFAI [peptide RMYNKIFAI (SEQ ID NO 10)] |
| 50 to 75% | RLLGEEVVRV [peptide RLLGEEVVRV (SEQ ID NO 155)] |
| 20 to 50% | MLDDRAYLV [peptide MLDDRAYLV (SEQ ID NO 128)] |
| 50 to 75% | SLVQRVETI (also called ECT2-001) [peptide SLVQRVETI (SEQ ID NO 142)] |
| 50 to 75% | RVLPPSALQSV [peptide RVLPPSALQSV (SEQ ID NO 124)] |
| 50 to 75% | TLAKYLMEL [peptide TLAKYLMEL (SEQ ID NO 126)] |
| 50 to 75% | SLISEKILL [peptide SLISEKILL (SEQ ID NO 106)] |

| peptide exchange yield | Binder |
| --- | --- |
| 10 to 20% | TAVGHALVL [peptide TAVGHALVL (SEQ ID NO 114)] |
| 50 to 75% | RLADLEALKV [peptide RLADLEALKV (SEQ ID NO 150)] |
| 50 to 75% | RLLHEVQEL [peptide RLLHEVQEL (SEQ ID NO 163)] |
| 50 to 75% | QLTEIKPLL [peptide QLTEIKPLL (SEQ ID NO 137)] |
| 20 to 50% | VLYEGVDEV [peptide VLYEGVDEV (SEQ ID NO 120)] |
| 50 to 75% | SLAPNIISQL [peptide SLAPNIISQL (SEQ ID NO 121)] |
| 20 to 50% | RTFEKIEEV [peptide RTFEKIEEV (SEQ ID NO 133)] |
| 20 to 50% | LVYQFVHPI [peptide LVYQFVHPI (SEQ ID NO 116)] |
| 20 to 50% | VLVDDDGIKVV [peptide VLVDDDGIKVV (SEQ ID NO 159)] |
| 50 to 75% | YQFDKVGILTL [peptide YQFDKVGILTL (SEQ ID NO 149)] |
| 50 to 75% | RLAELTVDEFLA [peptide RLAELTVDEFLA (SEQ ID NO 127)] |
| 50 to 75% | SAQGSDVSLTACKV [peptide SAQGSDVSLTACKV (SEQ ID NO 151)] |
| ≥ 75% | SLMMTIINL [peptide SLMMTIINL (SEQ ID NO 156)] |
| 50 to 75% | VLLNEILEQV [peptide VLLNEILEQV (SEQ ID NO 139)] |
| 50 to 75% | YLFEKTFNM [peptide YLFEKTFNM (SEQ ID NO 11)] |
